Common to all, as to assay type: in vivo
In experiment [1] the test system is soybean plants. Briefly: Field spray test of homozygous T3 soybean plants with Affinity Broadspec. The note with it: Affinity Broadspec (thifensulfuron + tribenuron) 1 oz product per acre. As to the method: Homozygous T3 soybean plants with and without ALS variant transgenes were grown in a field study and sprayed at the V2 to V4 growth stage with a commercial formulation of Affinity Broadspec at 1 oz product per acre (2× typical field rate). Affinity Broadspec contains 25% thifensulfuron and 25% tribenuron by volume. The herbicide was applied foliarly with nonionic surfactant. The herbicide response for individual events was determined by comparing to untreated plants of similar genetic background. Visual injury is on a scale of 0 to 100% injury (0=no effect to 100=dead plant). The substituted ALS variants gave substantially more protection to ALS-inhibitors than overexpression of the native ALS gene.

Experiment [2] has as its system soybean plants. Briefly: Spray test of homozygous transgenic soybean plants with five ALS-inhibitor herbicides. The note with it: homozygous T1 or T2 plants; for Lowest % injury Chlorimuron: chlorimuron 32 g ai/ha foliar; for Lowest % injury Imazapyr: imazapyr 4 g ai/ha foliar; for Lowest % injury Rimsulfuron: rimsulfuron 8 g ai/ha foliar; for Lowest % injury Thifensulfuron-methyl: thifensulfuron-methyl 16 g ai/ha foliar; for Lowest % injury Tribenuron-methyl: tribenuron-methyl 16 g ai/ha foliar. As to the method: T1 or T2 soybean plants were evaluated with qPCR to confirm they were homozygous for the transgene. Plants were sprayed at the V1 to V2 growth stage with the commercial formulations of chlorimuron (32 g ai/ha), tribenuron-methyl (16 g ai/ha), thifensulfuron-methyl (16 g ai/ha), rimsulfuron (8 g ai/ha), and imazapyr (4 g ai/ha). Each herbicide was applied foliarly with nonionic surfactant in a spray volume of 374 L/ha. The herbicide response for individual plants was determined by comparing to untreated plants of similar genetic background. Visual injury was scored on a scale of 0 to 100% injury (0=no effect to 100=dead plant). The lowest response for four treated plants of a single event from each construct with the listed expression cassette is reported.

For experiment [3], the system named is soybean plants. Briefly: Chlorsulfuron spray test of transgenic T1 soybean plants. The note with it: chlorsulfuron 3 g ai/ha foliar; homozygous T1 plants; 8 days after treatment; 0=no effect, 100=dead plant. Here is the method: T1 plants, each having an ALS variant transgene, were grown to the V1 to V2 growth stage and then sprayed with commercial chlorsulfuron formulation at a rate of 3 g ai/ha. All chlorsulfuron treatments were applied foliarly with 0.25% nonionic surfactant in a spray volume of 374 L/ha. Individual plants were compared to untreated plants of similar genetic background, evaluated for herbicide response at eight days after treatment and assigned a visual response score from 0 to 100% injury (0=no effect to 100=dead plant at day 8).
Results in Table 8 list the lowest injury among plants of a single event for constructs containing the listed expression cassette. The amino acid substituted ALS variants provided more protection than the overexpression of the native ALS gene. Seed was produced from a number of T1 plants and advanced to more extensive herbicide testing in the T2 generation.

B1: UBQ10: GM-ALS_P178S_D357E: UBQ10 promoter driving ALS variant SEQ ID NO 17 in transgenic soybean (protein)
chain: MAATASRTTRFSSSSSHPTFPKRITRSTLPLSHQTLTKPNHALKIKCSISKPPTAAPFTKEAPTTEPFVSRFASGEPRKGADILVEALERQGVTTVFAYPGGASMEIHQALTRSAAIRNVLPRHEQGGVFAAEGYARSSGLPGVCIATSGPGATNLVSGLADALMDSVPVVAITGQVSRRMIGTDAFQETPIVEVSRSITKHNYLILDVDDIPRVVAEAFFVATSGRPGPVLIDIPKDVQQQLAVPNWDEPVNLPGYLARLPRPPAEAQLEHIVRLIMEAQKPVLYVGGGSLNSSAELRRFVELTGIPVASTLMGLGTFPIGDEYSLQMLGMHGTVYANYAVDNSDLLLAFGVRFDERVTGKLEAFASRAKIVHIDIDSAEIGKNKQAHVSVCADLKLALKGINMILEEKGVEGKFDLGGWREEINVQKHKFPLGYKTFQDAISPQHAIEVLDELTNGDAIVSTGVGQHQMWAAQFYKYKRPRQWLTSGGLGAMGFGLPAAIGAAVANPGAVVVDIDGDGSFIMNVQELATIRVENLPVKILLLNNQHLGMVVQWEDRFYKSNRAHTYLGDPSSESEIFPNMLKFADACGIPAARVTKKEELRAAIQRMLDTPGPYLLDVIVPHQEHVLPMIPSNGSFKDVITEGDGRTRY
Turning to B1, the Lowest % injury in experiment [1] was 13%. Further, in experiment [2], the “Lowest % injury Chlorimuron” value stood at 20%, the “Lowest % injury Imazapyr” value stood at 40%, the “Lowest % injury Rimsulfuron” value is reported as 70% and the “Lowest % injury Thifensulfuron-methyl” value was found to be 20%. Also, the “Lowest % injury Tribenuron-methyl” value in experiment [2] was found to be 20%. The Lowest % injury in experiment [3] amounted to 5%.

B2: UBQ10: GM-ALS_W555L: UBQ10 promoter driving ALS variant SEQ ID NO 26 in transgenic soybean (protein)
chain: MAATASRTTRFSSSSSHPTFPKRITRSTLPLSHQTLTKPNHALKIKCSISKPPTAAPFTKEAPTTEPFVSRFASGEPRKGADILVEALERQGVTTVFAYPGGASMEIHQALTRSAAIRNVLPRHEQGGVFAAEGYARSSGLPGVCIATSGPGATNLVSGLADALMDSVPVVAITGQVPRRMIGTDAFQETPIVEVSRSITKHNYLILDVDDIPRVVAEAFFVATSGRPGPVLIDIPKDVQQQLAVPNWDEPVNLPGYLARLPRPPAEAQLEHIVRLIMEAQKPVLYVGGGSLNSSAELRRFVELTGIPVASTLMGLGTFPIGDEYSLQMLGMHGTVYANYAVDNSDLLLAFGVRFDDRVTGKLEAFASRAKIVHIDIDSAEIGKNKQAHVSVCADLKLALKGINMILEEKGVEGKFDLGGWREEINVQKHKFPLGYKTFQDAISPQHAIEVLDELTNGDAIVSTGVGQHQMWAAQFYKYKRPRQWLTSGGLGAMGFGLPAAIGAAVANPGAVVVDIDGDGSFIMNVQELATIRVENLPVKILLLNNQHLGMVVQLEDRFYKSNRAHTYLGDPSSESEIFPNMLKFADACGIPAARVTKKEELRAAIQRMLDTPGPYLLDVIVPHQEHVLPMIPSNGSFKDVITEGDGRTRY
Turning to B2, in experiment [2], the “Lowest % injury Chlorimuron” value is 5%, the “Lowest % injury Imazapyr” value is reported as 10%, the “Lowest % injury Rimsulfuron” value amounted to 80% and the “Lowest % injury Thifensulfuron-methyl” value amounted to 5%. In addition, the Lowest % injury in experiment [3] was 75%.

B3: UBQ10: GM-ALS_A103T_P178S: UBQ10 promoter driving ALS variant SEQ ID NO 7 in transgenic soybean (protein)
chain: MAATASRTTRFSSSSSHPTFPKRITRSTLPLSHQTLTKPNHALKIKCSISKPPTAAPFTKEAPTTEPFVSRFASGEPRKGADILVEALERQGVTTVFAYPGGTSMEIHQALTRSAAIRNVLPRHEQGGVFAAEGYARSSGLPGVCIATSGPGATNLVSGLADALMDSVPVVAITGQVSRRMIGTDAFQETPIVEVSRSITKHNYLILDVDDIPRVVAEAFFVATSGRPGPVLIDIPKDVQQQLAVPNWDEPVNLPGYLARLPRPPAEAQLEHIVRLIMEAQKPVLYVGGGSLNSSAELRRFVELTGIPVASTLMGLGTFPIGDEYSLQMLGMHGTVYANYAVDNSDLLLAFGVRFDDRVTGKLEAFASRAKIVHIDIDSAEIGKNKQAHVSVCADLKLALKGINMILEEKGVEGKFDLGGWREEINVQKHKFPLGYKTFQDAISPQHAIEVLDELTNGDAIVSTGVGQHQMWAAQFYKYKRPRQWLTSGGLGAMGFGLPAAIGAAVANPGAVVVDIDGDGSFIMNVQELATIRVENLPVKILLLNNQHLGMVVQWEDRFYKSNRAHTYLGDPSSESEIFPNMLKFADACGIPAARVTKKEELRAAIQRMLDTPGPYLLDVIVPHQEHVLPMIPSNGSFKDVITEGDGRTRY
For the molecule B3, in experiment [1], the Lowest % injury was 57%. For the same molecule, in experiment [2], the “Lowest % injury Chlorimuron” value turned out to be 35%, the “Lowest % injury Imazapyr” value is 45%, the “Lowest % injury Rimsulfuron” value is 80% and the “Lowest % injury Thifensulfuron-methyl” value is 35%. In experiment [2], the “Lowest % injury Tribenuron-methyl” value is listed as 65%. This molecule also returned a Lowest % injury in experiment [3] of 40%.

B4: SAMS: GM-ALS_P178A: SAMS promoter driving ALS variant SEQ ID NO 9 in transgenic soybean (protein)
chain: MAATASRTTRFSSSSSHPTFPKRITRSTLPLSHQTLTKPNHALKIKCSISKPPTAAPFTKEAPTTEPFVSRFASGEPRKGADILVEALERQGVTTVFAYPGGASMEIHQALTRSAAIRNVLPRHEQGGVFAAEGYARSSGLPGVCIATSGPGATNLVSGLADALMDSVPVVAITGQVARRMIGTDAFQETPIVEVSRSITKHNYLILDVDDIPRVVAEAFFVATSGRPGPVLIDIPKDVQQQLAVPNWDEPVNLPGYLARLPRPPAEAQLEHIVRLIMEAQKPVLYVGGGSLNSSAELRRFVELTGIPVASTLMGLGTFPIGDEYSLQMLGMHGTVYANYAVDNSDLLLAFGVRFDDRVTGKLEAFASRAKIVHIDIDSAEIGKNKQAHVSVCADLKLALKGINMILEEKGVEGKFDLGGWREEINVQKHKFPLGYKTFQDAISPQHAIEVLDELTNGDAIVSTGVGQHQMWAAQFYKYKRPRQWLTSGGLGAMGFGLPAAIGAAVANPGAVVVDIDGDGSFIMNVQELATIRVENLPVKILLLNNQHLGMVVQWEDRFYKSNRAHTYLGDPSSESEIFPNMLKFADACGIPAARVTKKEELRAAIQRMLDTPGPYLLDVIVPHQEHVLPMIPSNGSFKDVITEGDGRTRY
With B4, in experiment [2], the “Lowest % injury Chlorimuron” value is 0%, the “Lowest % injury Rimsulfuron” value was found to be 80%, the “Lowest % injury Thifensulfuron-methyl” value is listed as 25% and the “Lowest % injury Tribenuron-methyl” value came to 80%. The molecule further returned a Lowest % injury in experiment [3] of 0%.

B5: SAMS: GM-ALS_P178A_W555L: SAMS promoter driving HRA ALS variant SEQ ID NO 10 in transgenic soybean (protein)
chain: MAATASRTTRFSSSSSHPTFPKRITRSTLPLSHQTLTKPNHALKIKCSISKPPTAAPFTKEAPTTEPFVSRFASGEPRKGADILVEALERQGVTTVFAYPGGASMEIHQALTRSAAIRNVLPRHEQGGVFAAEGYARSSGLPGVCIATSGPGATNLVSGLADALMDSVPVVAITGQVARRMIGTDAFQETPIVEVSRSITKHNYLILDVDDIPRVVAEAFFVATSGRPGPVLIDIPKDVQQQLAVPNWDEPVNLPGYLARLPRPPAEAQLEHIVRLIMEAQKPVLYVGGGSLNSSAELRRFVELTGIPVASTLMGLGTFPIGDEYSLQMLGMHGTVYANYAVDNSDLLLAFGVRFDDRVTGKLEAFASRAKIVHIDIDSAEIGKNKQAHVSVCADLKLALKGINMILEEKGVEGKFDLGGWREEINVQKHKFPLGYKTFQDAISPQHAIEVLDELTNGDAIVSTGVGQHQMWAAQFYKYKRPRQWLTSGGLGAMGFGLPAAIGAAVANPGAVVVDIDGDGSFIMNVQELATIRVENLPVKILLLNNQHLGMVVQLEDRFYKSNRAHTYLGDPSSESEIFPNMLKFADACGIPAARVTKKEELRAAIQRMLDTPGPYLLDVIVPHQEHVLPMIPSNGSFKDVITEGDGRTRY
B5: the Lowest % injury stood at 5% in experiment [1] and 10% in experiment [3]. In addition, the “Lowest % injury Tribenuron-methyl” value in experiment [2] was found to be 75%.

Values taken from patent US10294487B2, “Methods and compositions involving ALS variants with native substrate preference” (E I DU PONT DE NEMOURS AND COMPANY, priority 2012, dated 2019).
